Results on one molecule are retold here after patent publication US20030031664A1 (GENERAL HOSPITAL, published 2003).

Assay [1] addresses ferret α2-antiplasmin (ferret). In words: cell-based or functional assay.
The target in assay [2] is T1, human alpha-2-antiplasmin (human, UniProt P08697 40-491, limits assumed, 125I-labelled in the radioimmunoassays; biotinylated in the competition assay of Example 5).
T1 sequence (looked up): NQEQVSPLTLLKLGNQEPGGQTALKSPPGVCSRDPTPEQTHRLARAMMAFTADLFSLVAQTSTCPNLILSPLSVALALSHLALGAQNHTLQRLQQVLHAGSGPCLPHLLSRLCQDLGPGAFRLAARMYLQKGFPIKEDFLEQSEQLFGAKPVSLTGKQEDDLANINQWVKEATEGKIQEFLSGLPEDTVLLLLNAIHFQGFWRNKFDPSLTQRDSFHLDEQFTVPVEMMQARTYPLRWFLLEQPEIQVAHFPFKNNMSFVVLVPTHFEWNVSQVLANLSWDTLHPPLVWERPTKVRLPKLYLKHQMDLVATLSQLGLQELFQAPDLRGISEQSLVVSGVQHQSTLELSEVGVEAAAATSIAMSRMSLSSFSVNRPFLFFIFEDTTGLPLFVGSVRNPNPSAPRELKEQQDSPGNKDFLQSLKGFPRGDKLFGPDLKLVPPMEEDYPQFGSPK
The experiment in a line: cell-based or functional assay.

B1: monoclonal antibody 77A3 (antibody, V domains shown)
VH: QIQLVQSGPELKKPGETVKISCKASGYTFTNYGMNWVKQAPGKGLKWMGWINTKSGEPTYAEEFKGRFAFSLETSASTANLQIKNLKNEDTATYFCARWVPGTYAMDYWGQGTSVTVSS
VL: DIQMTQSPASLSASVGETVTITCRASGNIHNYLAWYQQKQGKSPQLLVYNAKTLADGVPSRFSGSGSGTQFSLKINSLQPEDFGSHYCQHFWTTPWTFGGGTKLEIK
With B1, the inhibition of ferret α2AP activity in plasma, ex vivo, 1 and 4 hours after 22.5 mg/kg i.v. (chromogenic plasmin inhibition assay) in assay [1] was 75%. Further, the “increase in potency of lysis by urokinase (dose response with and without MAb)” value in assay [2] was approximately 100 fold.
